This note sets out measurements from patent US20110300138A1 (published 2011).

For test [1], the target named is TSHR with Thr257 mutated to Ala, expressed in CHO cells (human) (UniProt P16473). The experiment in a line: cell-based or functional assay.
The target of test [2] is wild type TSHR (human TSH receptor) expressed in CHO cells (human) (UniProt P16473). The experiment in a line: cell-based or functional assay.
Test [3] addresses TSH receptor (TSHR), full length human, coated on tubes (human) (UniProt P16473). Briefly: inhibition of 125I-TSH binding to TSHR coated tubes; 100 µg/mL, diluted in HBD serum pool.
In test [4] the target is TSHR (thyroid stimulating hormone receptor), full length human (human) (UniProt P16473). Briefly: negative control; competitor ^125I-K1-70 IgG, TSHR coated tubes; 0.1 µg/mL in assay buffer.
For test [5], the target named is thyroid stimulating hormone receptor (TSHR), full length human TSHR (human) (UniProt P16473). Briefly: TSH-biotin competition ELISA, TSHR coated wells; negative control, 100 µg/mL in assay buffer. Background: ELISA stands for enzyme-linked immunosorbent assay.
Test [6] concerns the target human thyroid stimulating hormone receptor (TSHR), full length (human) (UniProt P16473). The experiment in a line: 125I-K1-70 Fab (competitor) binding to TSHR coated tubes; negative control MAb 10 µg/mL in HBD serum.
Test [7] concerns the target TSH receptor (TSHR) coated on tubes (human) (UniProt P16473). Briefly: inhibition of 125I-K1-70 IgG binding to TSHR coated tubes; negative control 0.1 µg/mL in HBD serum pool.
The target in test [8] is human TSH receptor (full length) coated on ELISA plate wells (human) (UniProt P16473). Briefly: TSH-biotin binding inhibition ELISA, TSHR coated wells; 100 µg/mL in HBD serum pool; negative control MAb.
In test [9] the target is TSHR (full length) coated on tubes (human) (UniProt P16473). Briefly: inhibition of 125I-K1-18 Fab (competitor) binding to TSHR coated tubes; negative control 100 µg/mL in HBD serum.
The target of test [10] is TSH receptor (full length human TSHR) coated on tubes (human) (UniProt P16473). Briefly: 125I-TSH binding inhibition read against NIBSC 90/672; 10 ng/mL, in serum.
The target in test [11] is TSHR with Phe134 mutated to Ala, expressed in CHO cells (human) (UniProt P16473). Briefly: cell-based or functional assay.
Test [12] has as its target wild type TSHR expressed in CHO cells (human) (UniProt P16473). The experiment in a line: cell-based or functional assay.
Test [13] has as its target TSHR (thyroid stimulating hormone receptor), full length human (human) (UniProt P16473). Briefly: competitor ^125I-K1-70 IgG, TSHR coated tubes; 1 µg/mL in assay buffer.
Test [14] has as its target TSH receptor (TSHR), full length human, coated on tubes (human) (UniProt P16473). The experiment in a line: inhibition of 125I-K1-18 IgG binding to TSHR coated tubes; competitor 125I-K1-18 IgG; sample at 0.01 µg/mL in HBD serum.
The target of test [15] is TSH receptor (full length human TSHR) (human) (UniProt P16473). Briefly: competition ELISA: inhibition of M22 Fab-peroxidase (competitor) binding to TSHR coated wells; test sample at 1 µg/mL diluted in assay buffer.
Test [16] deals with human thyroid stimulating hormone receptor (TSHR), full length (human) (UniProt P16473). The experiment in a line: 125I-K1-18 Fab competition, TSHR coated tubes; 0.01 µg/mL in HBD.
The target is the same in test [17]. Briefly: 125I-K1-18 Fab competition, TSHR coated tubes; 0.01 µg/mL in assay buffer.
The target of test [18] is human TSH receptor (full length) coated on ELISA plate wells (human) (UniProt P16473). Briefly: TSH-biotin binding inhibition ELISA, TSHR coated wells; 0.01 µg/mL in assay buffer.
The target in test [19] is TSH receptor (TSHR), full length human, coated on tubes (human) (UniProt P16473). Briefly: inhibition of 125I-TSH binding to TSHR coated tubes; 1 µg/mL, diluted in assay buffer.
For test [20] the target is unchanged. The experiment in a line: inhibition of 125I-TSH binding to TSHR coated tubes; 100 µg/mL, diluted in assay buffer.
The target is the same in test [21]. Briefly: inhibition of 125I-TSH binding to TSHR coated tubes; 100 µg/mL, diluted in HBD serum pool. This is another data set of the same source.
Test [22] concerns the target TSH receptor (TSHR) coated on tubes (human) (UniProt P16473). The experiment in a line: inhibition of 125I-K1-70 IgG binding to TSHR coated tubes; sample 100 µg/mL in HBD serum pool.
Test [23] has as its target human TSH receptor (full length) coated on ELISA plate wells (human) (UniProt P16473). Briefly: TSH-biotin binding inhibition ELISA, TSHR coated wells; 100 µg/mL in assay buffer + 100 µg/mL 5B3 IgG.
Test [24] concerns the target TSH receptor (TSHR), full length human, coated on tubes (human) (UniProt P16473). Briefly: inhibition of 125I-K1-18 IgG (competitor) binding to TSHR coated tubes; test sample at 0.1 µg/mL in assay buffer.
In test [25] the target is thyroid stimulating hormone receptor (full length human TSHR) (human) (UniProt P16473). Briefly: ELISA: inhibition of M22 Fab-peroxidase (competitor) binding to TSHR coated wells; 0.1 µg/mL, diluted in assay buffer.
The target is the same in test [26]. Briefly: ELISA: inhibition of M22 Fab-peroxidase (competitor) binding to TSHR coated wells; 100 µg/mL, diluted in HBD serum pool.
Test [27] has the same target. Briefly: ELISA: inhibition of M22 Fab-peroxidase (competitor) binding to TSHR coated wells; 0.01 µg/mL, diluted in HBD serum pool.

In turn, 5B3 IgG (antibody) returned a % inhibition of TSH stimulation; 5B3 10 µg/mL in test [1] of 0%. This molecule came in with a % inhibition of TSH stimulation; 5B3 100 µg/mL in test [1] of 7%. In addition, the Cyclic AMP produced; 5B3 10 µg/mL + TSH 3 ng/mL in test [1] amounted to 94.2 pmol/mL; in test [2] it was 85.9 pmol/mL. In addition, the Cyclic AMP produced; 5B3 100 µg/mL + TSH 3 ng/mL amounted to 86.8 pmol/mL in test [1] and 83.7 pmol/mL in test [2]. The Mutated/wild type (%) of cyclic AMP produced; 5B3 10 µg/mL + TSH 3 ng/mL in [1] was determined as 110%. Moreover, in test [1], the Mutated/wild type (%) of cyclic AMP produced; 5B3 100 µg/mL + TSH 3 ng/mL stood at 104%. The Inhibition of binding (%) is -3.9% in test [3]; -1.2% in test [4]; 1.3% in test [5]; -5.7% in [6]; 9.4% in test [7]; -1.1% in test [9]. In test [8], the % inhibition of TSH-biotin binding was 10.9%.
On to M22 IgG (antibody), for which, in test [10], the units/L came out at 1.5 units/L and the units/mg was found to be 150 units/mg.
In test [11], TSH (ligand) had a % inhibition of TSH stimulation; TSH (2) of 9%, a Cyclic AMP produced; TSH 3 ng/mL of 111 pmol/mL, a Cyclic AMP produced; TSH (2) of 102 pmol/mL and a Mutated/wild type (%) of cyclic AMP produced; TSH 3 ng/mL of 103%. In test [11], this molecule had a Mutated/wild type (%) of cyclic AMP produced; TSH (2) of 71%. Besides, in test [12], the Cyclic AMP produced; TSH 3 ng/mL was determined as 108 pmol/mL and the Cyclic AMP produced; TSH (2) was found to be 142 pmol/mL.
With 9D33 IgG (antibody), the figures for the Inhibition of binding (%) in test [13], in [14] and in test [15] were 37.2%, 5.3% and 60.1%, respectively.

B1: 5C9 IgG (antibody, from another filing, V domains shown)
VH: EVQLVESGGGLIQPGGSLRLSCAASGFTVSSNYMSWVRQAPGKGLEWVSVTYSGGSTSYADSVKGRFTISRDNSKNTLYLQMNSLRAEDTAVYYCARGGRYCSSISCYARSGCDYWGQGTLVTVSS
VL: AIQMTQSPSSLSASVGDRVTITCRASQSISNYLNWYQQKPGKAPKLLIYAASSLQSGVPSRFSGSGSGTDFTLTISSLQPEDFATYYCQQSYSSPSTTFGQGTKLEIK
As to B1, the Inhibition of binding (%) in [16] came to 5.7%; in test [17], 3%; in test [19] it was 38.7%; in test [20], 92.5%; in test [21] it was 59.2%; in test [22], 68.5%. For the same molecule, the Inhibition of binding (%) in test [24] amounted to 33.4%; in test [25], 7.1%; in test [26] it was 19.6%; in [27], 0.9%. Besides, the % inhibition of TSH-biotin binding in test [18] was found to be 16.1%; in [23], 92.3%.
